For the test, the target named is T1, amyloid β protein fragment 1–42 (synthetic Aβ peptide, oligomer preparation) (UniProt P05067 672-713).
T1 construct: amyloid beta 1-42, the cut product of the amyloid precursor protein; One preparation that holds monomeric and oligomeric forms, which are seen as separate bands on non-reducing SDS-PAGE; also called Aβ1–42; Aβ oligomers; source: synthetic peptide; oligomers prepared from hexafluoroisopropanol film, DMSO, Hams F-12, 4 °C for 24 h, supernatant after 14,000 x g
Description: pull-down; glutathione beads coated with 500 ng GST0 or GST fusion protein, incubated with 100 pM Aβ oligomers in 50 mM Tris-HCl pH7.5, 5 mM MgCl2, 20 mM KCl, 500 µg/mL BSA for 1 h at RT; washed, eluted under non-reducing conditions, SDS-PAGE and Western blot with 6E10. Conditions: both partners purified.

Data on one molecule can be found in publication PMC9146559, “Recombinant Integrin β1 Signal Peptide Blocks Gliosis Induced by Aβ Oligomers” (International Journal of Molecular Sciences, 2022).

B1: GST-Rs recombinant fusion protein (integrin β1 signal peptide, amino acids 1–20) (domain or fragment, UniProt P05556 1-20, looked up)
chain: MNLQPIFWIGLISSVCCVFA
notes: signal peptide in the construct; integrin β1 (ITGβ1) amino acids 1-20, PCR from pCMV6-XL5-ITGB1 (Origene); The fragment was cloned through EcoRI sites, so linker residues from the vector are likely; The printed forward primer (ATG AAT TTA CAA CC) encodes M-N-L-Q-P, which fits the human cDNA; also called Rs peptide; recombinant integrin β1 signal peptide
B1: the binding result was “binds”.
